Substrate in series [1]: N[C@@H](Cc1ccccc1)C(=O)O
Put plainly: purified protein. The format is biochemical, Halalkalibacterium halodurans. As to conditions: oxidative deamination, 2 mM NAD+, 50 mM glycine-KCl-KOH pH 10.4, 25°C.

Substrate in series [2]: O=C(O)C(=O)Cc1ccccc1
Nature of the series: purified protein. The series is classed as biochemical, Halalkalibacterium halodurans. As to conditions: reductive amination, 500 mM ammonia, 100 microM NADH, glycine-KCl-KOH pH 10.4, 25°C.

For 4 proteins, Km and kcat results are on record in paper PMC9728165, “Improving Catalytic Efficiency and Changing Substrate Spectrum for Asymmetric Biocatalytic Reductive Amination” (Journal of Microbiology and Biotechnology, 2019).

As a reminder, the Km is the concentration of substrate that gives half-maximal velocity. Broadly, the kcat is the maximal rate divided by the concentration of active sites.

B1: PheDH (Halalkalibacterium halodurans C-125) (protein)
chain: MLTKTPTVTSTLDIFTEMAEHEQVLFCHDPSSGLRAIIAIHDTTLGPALGGCRMYPYQTTEDALRDVLRLSKGMTQKCAAADVDFGGGKAVIIGDPAKDKSANLFRAFGQFVESLNGRFYTGTDMGTTMEDFVHALKETNGIVGIPKEYGGSGDSSVPTAKGVINSLKAISQVVLKDKQFSGRTYAIQGLGKVGFKVAEELLKEGNDLYVSDLQESLPLRLQQLGQRLGRHVEILHGDEIYEAAADVFVPCAQGAILNDATIARLKVKAIAGAANNQLEAERHGQMLHDQGIWFAPDYIVNSGGLIQVADELYGSNEKRVLSKTNAIYDTILEIFHQAERHHITTLQAANQLCERRIRERARRNNFFVNRIRPKWNLRK
For the protein B1, in the series “purified protein [1]”, the Michaelis-Menten constant (Km) was found to be 6.88 ± 0.41 mM and the kcat was found to be 149.08 ± 0.21 min⁻¹. Moreover, in the series “purified protein [2]”, the Km amounted to 0.337 ± 0.05 mM and the catalytic constant (kcat) is 617.78 ± 1.0 min⁻¹.

B2: PheDH (Halalkalibacterium halodurans C-125; E113D/N276L) (protein)
chain: MLTKTPTVTSTLDIFTEMAEHEQVLFCHDPSSGLRAIIAIHDTTLGPALGGCRMYPYQTTEDALRDVLRLSKGMTQKCAAADVDFGGGKAVIIGDPAKDKSANLFRAFGQFVDSLNGRFYTGTDMGTTMEDFVHALKETNGIVGIPKEYGGSGDSSVPTAKGVINSLKAISQVVLKDKQFSGRTYAIQGLGKVGFKVAEELLKEGNDLYVSDLQESLPLRLQQLGQRLGRHVEILHGDEIYEAAADVFVPCAQGAILNDATIARLKVKAIAGAANLQLEAERHGQMLHDQGIWFAPDYIVNSGGLIQVADELYGSNEKRVLSKTNAIYDTILEIFHQAERHHITTLQAANQLCERRIRERARRNNFFVNRIRPKWNLRK
Take B2: the Km worked out at 5.14 ± 0.3 mM in the series “purified protein [1]” and 0.812 ± 0.01 mM in the series “purified protein [2]”. The values for the kcat in “purified protein [1]” and in “purified protein [2]” were 675.58 ± 3.3 min⁻¹ and 2345.11 ± 4.0 min⁻¹, respectively.

B3: PheDH (Halalkalibacterium halodurans C-125; E113D) (protein)
chain: MLTKTPTVTSTLDIFTEMAEHEQVLFCHDPSSGLRAIIAIHDTTLGPALGGCRMYPYQTTEDALRDVLRLSKGMTQKCAAADVDFGGGKAVIIGDPAKDKSANLFRAFGQFVDSLNGRFYTGTDMGTTMEDFVHALKETNGIVGIPKEYGGSGDSSVPTAKGVINSLKAISQVVLKDKQFSGRTYAIQGLGKVGFKVAEELLKEGNDLYVSDLQESLPLRLQQLGQRLGRHVEILHGDEIYEAAADVFVPCAQGAILNDATIARLKVKAIAGAANNQLEAERHGQMLHDQGIWFAPDYIVNSGGLIQVADELYGSNEKRVLSKTNAIYDTILEIFHQAERHHITTLQAANQLCERRIRERARRNNFFVNRIRPKWNLRK
Regarding B3, the Km in the series “purified protein [1]” stood at 8.28 ± 0.4 mM; in “purified protein [2]” it was 7.607 ± 0.2 mM. The kcat in “purified protein [1]” was found to be 731.58 ± 0.3 min⁻¹; in “purified protein [2]”, 1507.42 ± 1.0 min⁻¹.

B4: PheDH (Halalkalibacterium halodurans C-125; N276L) (protein)
chain: MLTKTPTVTSTLDIFTEMAEHEQVLFCHDPSSGLRAIIAIHDTTLGPALGGCRMYPYQTTEDALRDVLRLSKGMTQKCAAADVDFGGGKAVIIGDPAKDKSANLFRAFGQFVESLNGRFYTGTDMGTTMEDFVHALKETNGIVGIPKEYGGSGDSSVPTAKGVINSLKAISQVVLKDKQFSGRTYAIQGLGKVGFKVAEELLKEGNDLYVSDLQESLPLRLQQLGQRLGRHVEILHGDEIYEAAADVFVPCAQGAILNDATIARLKVKAIAGAANLQLEAERHGQMLHDQGIWFAPDYIVNSGGLIQVADELYGSNEKRVLSKTNAIYDTILEIFHQAERHHITTLQAANQLCERRIRERARRNNFFVNRIRPKWNLRK
As to B4, the Michaelis constant (Km) stood at 8.71 ± 0.2 mM in the series “purified protein [1]” and 1.05 ± 0.1 mM in “purified protein [2]”. For the same protein, the values for the kcat in the series “purified protein [1]” and in the series “purified protein [2]” were 530.61 ± 4.12 min⁻¹ and 1879.26 ± 2.3 min⁻¹, respectively.
